Measured values as given in publication PMC11046469, “Leveraging a Phage-Encoded Noncanonical Amino Acid: A Novel Pathway to Potent and Selective Epigenetic Reader Protein Inhibitors” (ACS Central Science, 2024).
Each block holds one molecule with its values, some of them ahead of it. Where a SMILES comes first, the peptide text is derived from it. Where no end group is shown, it is not given here. The star is where a group is joined. Oxazole(5-CO) = O=C(c1cnco1)*; Crotonyl(E) = C/C=C/C(=O)*; 2Furoyl = O=C(c1ccco1)*; Butyryl = CCCC(=O)*

Legend:
[1] = target: T1, ENL YEATS domain (His-ENL YEATS) (Homo sapiens, UniProt Q03111); test: AlphaScreen inhibition of ENL YEATS binding to biotinylated H3K27cr peptide; conditions: mean ± SD, n = 3
T1 construct: (aa 1−148) was cloned in pET19b; made in house; host or cells: E. coli BL21(DE3pLysS)
T1 sequence (Q03111 1-148): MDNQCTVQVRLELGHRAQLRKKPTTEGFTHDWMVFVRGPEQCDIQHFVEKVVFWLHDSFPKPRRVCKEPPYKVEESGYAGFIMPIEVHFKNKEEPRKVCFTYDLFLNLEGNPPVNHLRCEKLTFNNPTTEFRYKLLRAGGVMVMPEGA
Description: (§1) To test the inhibition potency of the two selected peptides for the ENL YEATS domain, ENL-S1 and ENL-S2 were chemically synthesized through solid-phase peptide synthesis (SPPS) and evaluated by an AlphaScreen assay. In this assay, a biotinylated H3K27cr peptide and a 6xHis-tagged ENL YEATS domain (His-ENL YEATS) were immobilized on PerkinElmer streptavidin donor and nickel-chelating (Ni-NTA) acceptor beads, respectively. The use of a His-ENL YEATS instead of the original AviSUMO-ENL YEATS construct in the assay prevents potential false positive results derived from ligands which bind to the SUMO protein but not to the ENL YEATS domain. […] We then assessed the binding affinity of two ligands for the ENL YEATS domain using biolayer interferometry (BLI). Briefly, His-ENL was immobilized onto Ni-NTA functionalized biosensors to measure the binding kinetics of target peptides at different concentrations. […] As a small peptide directly selected from a phage display library, this level of high potency was unexpected. […] However, shorter-than-10-mer linear peptides with nanomolar binding potency have rarely been directly selected from phage display libraries. One example was S2P03, a 7-mer peptide that has a KD value as 49 ± 9 nM to bind to SIRT2.[10] This peptide contained BuK and was identified also from a BuK-containing phage display library using the active site-directed ligand selection technique. Taken together, the two examples confirmed that utilizing phage display libraries incorporated with a ncAA serving as a ligand for a protein target for active site-directed ligand selection is a successful method for identifying ultrahigh potency ligands for epigenetic proteins including both enzymes and readers. For ENL-S1 and ENL-S2, their determined kon and koff values were 6.23 ± 0.07 × 10^4 M^–1 s^–1, […] and […], 5.54 ± 0.02 × 10^–3 s^–1, respectively. Compared to ENL-S2, ENL-S1 has faster binding to the ENL YEATS domain and slower release from it, indicating its potential long-term action on the ENL YEATS inhibition. […]
Characterization of Selected Peptide Inhibitors
AlphaScreen Assay to Validate ENL Inhibitors:
His-ENL, His-AF9 (aa 1-149, EpiCypher), and biotinylated H3K27cr (aa 15-33, EpiCypher) were used to assay the synthesized inhibitors. The lyophilized peptide inhibitors were dissolved in DMF […]
and serially diluted into assay buffer (50 mM HEPES, 100 mM NaCl, 0.1% BSA, 0.05% CHAPS, pH 7.4) and incubated in the presence of 120 nM His-tagged protein at 37 °C for 30 minutes. 12.5 μL of biotinylated H3K27cr (400 nM) was aliquoted into a light gray 384-well Alphaplate (Perkin Elmer) and incubated at 37 °C. 12.5 μL of the inhibitor/protein solution was added to the H3K27cr solution, and incubated for 30 minutes at 37 °C. 25 μL of AlphaScreen histidine (nickel chelate) detection beads (Perkin Elmer) was added at 20 μg/mL each bead (streptavidin donor beads and nickel chelate acceptor beads), and the plate was incubated at 37 °C for 30 minutes. The plate was cooled to room temperature for 10 minutes, and then the beads were excited at 680 nm and the luminescence at 615 nm was read. […]
Biolayer […]
interferometry assays were performed in 96 well plates (GreinerBio-One, polypropylene, flat-bottom) using an Octet Red96 System (Sartorius). Wells were filled with 200 μL of assay buffer, blocking buffer (assay buffer + 0.1% BSA), protein solution, peptide solution, regeneration solution, and reload solution. For immobilization, His-tagged proteins were immobilized onto Ni-NTA sensors at 20 for 600 s. Sensors were then dipped into blocking buffer for 180 s, assay […] buffer for 300 s, peptide solution for 300 s, and back to assay buffer for 300 s. If multiple samples were tested, Ni-NTA sensors can be reconditioned in regeneration (10 mM glycine, pH 1.7) solution followed by reload solution (10 mM NiCl2) for 30 and 60 s, respectively. Measurements […]

[2] = target: T2, ENL YEATS domain (His-ENL) (Homo sapiens, UniProt Q03111); test: Biolayer interferometry (BLI) binding to ENL YEATS; conditions: BLI
T2 construct: (aa 1−148) was cloned in pET19b; made in house; host or cells: E. coli BL21(DE3pLysS)
T2 sequence (Q03111 1-148): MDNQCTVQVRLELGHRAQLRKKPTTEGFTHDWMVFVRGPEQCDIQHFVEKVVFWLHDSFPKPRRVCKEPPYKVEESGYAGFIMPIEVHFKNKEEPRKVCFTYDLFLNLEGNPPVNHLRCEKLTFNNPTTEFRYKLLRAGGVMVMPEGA
Description: as §1
Biolayer Interferometry to Validate ENL Ligands:
His-ENL, His-AF9 (aa 1-149, EpiCypher), His-GAS41 (aa 15-160, EpiCypher), and YEATS2-His (aa 200-345, EpiCypher) were reconstituted in water and diluted into assay buffer (20mM Tris, 300 mM NaCl, pH 7.9) for immobilization onto Octet Ni-NTA biosensors (Sartorius). Lyophilized peptides were dissolved in DMF and diluted to designated concentrations in assay buffer. Biolayer interferometry assays were performed in 96 well plates (GreinerBio-One, polypropylene, flat-bottom) using an Octet Red96 System (Sartorius). Wells were filled with 200 μL of assay buffer, blocking buffer (assay buffer + 0.1% BSA), protein solution, peptide solution, regeneration solution, and reload solution. For immobilization, His-tagged proteins were immobilized onto Ni-NTA sensors at 20 for 600 s. Sensors were then dipped into blocking buffer for 180 s, assay […] buffer for 300 s, peptide solution for 300 s, and back to assay buffer for 300 s. If multiple samples were tested, Ni-NTA sensors can be reconditioned in regeneration (10 mM glycine, pH 1.7) solution followed by reload solution (10 mM NiCl2) for 30 and 60 s, respectively. Measurements were carried out at 30 °C. Data were analyzed within the ForteBio Data Analysis software. Data were processed by double subtracting ligand only and protein only reference wells and aligning the data to the beginning of the association. Then, global kinetic fit was performed for all sensogram curves with a 1:1 model. Steady state KD values were reported.
AlphaScreen Assay with Biotinylated-ENL-S1:
The AlphaScreen assay was carried out in 384-well plates. Manual assay setup was performed in a 40 uL reaction buffer (50 mM HEPES pH 7.4, 100 mM NaCl, 0.1% bovine serum albumin, and 0.05% CHAPS). 10 µL of varying concentrations of His-ENL YEATS (0-300 nM) and 10 µL of […]

[3] = target: T3, 6xHis-tagged ENL YEATS domain, Q03111; test: AlphaScreen; conditions: chain shown with the change; n = 3; parent: 62.6 nM
T3 chain: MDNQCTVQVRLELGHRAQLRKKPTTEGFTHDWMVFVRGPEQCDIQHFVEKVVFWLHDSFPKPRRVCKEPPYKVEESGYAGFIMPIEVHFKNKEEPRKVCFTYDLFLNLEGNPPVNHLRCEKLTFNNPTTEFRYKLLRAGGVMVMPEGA

AF9 YEATS domain [4] = target: T4, AF9 YEATS domain (human, UniProt P42568 1-138)
T4 chain: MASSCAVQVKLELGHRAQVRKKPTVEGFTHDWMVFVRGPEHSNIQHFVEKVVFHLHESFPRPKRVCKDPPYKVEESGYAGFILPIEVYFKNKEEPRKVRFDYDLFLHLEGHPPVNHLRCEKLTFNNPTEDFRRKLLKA

AF9 YEATS domain [5] = target: T4, AF9 YEATS domain; test: AlphaScreen or HTRF; competition: AF9 YEATS and its corresponding acylated histone peptide; test peptide varied; n = 3
[6] = target: T5, 6xHis-tagged ENL YEATS domain (human, UniProt Q03111 1-148); test: AlphaScreen or HTRF; competition: biotinylated H3K27cr peptide on streptavidin donor beads, His-ENL YEATS on nickel-chelating (Ni-NTA) acceptor beads; test peptide varied; n = 3
T5 chain: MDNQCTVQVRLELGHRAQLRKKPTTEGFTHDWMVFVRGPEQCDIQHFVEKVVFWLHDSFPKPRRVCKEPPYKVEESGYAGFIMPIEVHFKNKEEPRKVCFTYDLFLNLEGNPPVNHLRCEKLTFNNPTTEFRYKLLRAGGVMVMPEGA

Molecule: CCCC(=O)NCCCC[C@H](NC(=O)[C@H](Cc1ccc(O)cc1)NC(=O)[C@H](C)NC(=O)[C@H](Cc1ccc(O)cc1)NC(=O)[C@@H](NC(=O)[C@H](CC(=O)O)NC(=O)[C@@H](N)Cc1ccc(O)cc1)C(C)C)C(N)=O [ENL-S1A5] (H-YDVYAYK(Butyryl)-NH2; N-terminus assumed)
IC50 [1]: > 2000 nM

B1: ENL-S1 D2A (peptide)
chain: YAVYCYK
IC50 [3]: 52.2 nM

B2: ENL-S1 Y1A (peptide)
chain: ADVYCYK
IC50 [3]: 248 nM

B3: ENL-S1 V3A (peptide)
chain: YDAYCYK
IC50 [3]: > 5000 nM

B4: ENL-S1 C5A (peptide)
chain: YDVYAYK
IC50 [3]: > 2000 nM

B6: ENL-S1 Y4A (peptide)
chain: YDVACYK
IC50 [3]: 718 nM

Continued, values first:

IC50 [1]: 1220 nM
Kd [2]: 881 ± 9 nM
koff [2]: 0.00554 s⁻¹
Molecule: CCCC(=O)NCCCC[C@H](NC(=O)[C@H](CCC(=O)O)NC(=O)[C@@H](NC(=O)[C@@H](NC(=O)[C@H](Cc1c[nH]c2ccccc12)NC(=O)[C@@H](N)Cc1c[nH]c2ccccc12)[C@@H](C)CC)[C@@H](C)CC)C(=O)NCC(N)=O [ENL-S2] (H-WWIIEK(Butyryl)G-NH2; N-terminus assumed)

IC50 [1]: > 5000 nM
Molecule: CCCC(=O)NCCCC[C@H](NC(=O)[C@H](Cc1ccc(O)cc1)NC(=O)[C@H](CS)NC(=O)[C@H](Cc1ccc(O)cc1)NC(=O)[C@H](C)NC(=O)[C@H](CC(=O)O)NC(=O)[C@@H](N)Cc1ccc(O)cc1)C(N)=O [ENLS1A3] (H-YDAYCYK(Butyryl)-NH2; N-terminus assumed)

IC50 (AF9 YEATS domain [4]): 168 nM
fold lower potency (IC50) toward AF9 YEATS than toward ENL YEATS (AF9 YEATS domain [5]): 7.7 fold
IC50 [6]: 22 nM
B5: ENL-S1f (peptide)
chain: YDVYCYK(2Furoyl)

IC50 (AF9 YEATS domain [4]): 231 nM
fold lower potency (IC50) toward AF9 YEATS than toward ENL YEATS (AF9 YEATS domain [5]): 23 fold
IC50 [6]: 10 nM
B7: ENL-S1o (peptide)
chain: YDVYCYK(Oxazole(5-CO))

IC50 (AF9 YEATS domain [4]): 347 nM
fold lower potency (IC50) toward AF9 YEATS than toward ENL YEATS (AF9 YEATS domain [5]): 18 fold
B8: ENL-S1c (peptide)
chain: YDVYCYK(Crotonyl(E))
